Assay results: patent US20220112525A1, “BIOSYNTHESIS OF VANILLIN FROM ISOEUGENOL” (Conagen Inc., priority 2019, published 2022)

Tests used:
[1] = Enzyme assay in vitro with 4,4'-dihydroxy-3,3'-dimethoxystilbene as substrate, vanillin detected by HPLC; type: biochemical; details: 30° C., 50 mM Tris-HCl pH 8.5, substrate 200 μM
Procedure: The activity of FfLSD was determined by two substrates, 4,4′-dihydroxy-3,3′-dimethoxystilbene and isoeugenol, respectively. For measuring the activity toward 4,4′-dihydroxy-3,3′-dimethoxystilbene, the activity was assayed at 30° C. in 2.5 ml of 50 mM Tris-HCl buffer (PH 8.5) containing suitable amounts of enzyme solution. The enzyme reaction was started by addition of substrates dissolved in 10 μL of N,N-dimethylformamide (DMF) to a final concentration of 200 μM. The reaction product, vanillin, was detected with HPLC analysis.

[2] = Enzyme assay in vitro with isoeugenol as substrate, formation of vanillin by HPLC; type: biochemical; details: 10 mM isoeugenol, 10 min
Procedure: The activity was also measured with isoeugenol by measuring the formation of vanillin. The reaction mixture contained 10 mM isoeugenol, 100 mM potassium phosphate buffer (pH 7.0), 10% (v/v) ethanol and an appropriate amount of enzyme, in a total volume of 1 ml. The reaction was started, by adding isoeugenol as ethanol solution, carried out at 30° C. for 10 min with reciprocal shaking (160 strokes min^−1) and stopped with 1 ml of methanol. After centrifugation at 21,500, the supernatant was analyzed by HPLC for the determination of isoeugenol, vanillin, vanillyl alcohol. FfLSD enzyme treated in boiling water for 5 minutes was used as the negative control.
Almost all isoeugenol added to the reaction mixture was converted to vanillin (top panel). As expected, no vanillin was produced with the negative control (bottom panel).

B1: FfLSD: putative lignostilbene-α, β-dioxygenase from the fungus Fusarium fujikuroi, 522 amino acids (SEQ ID NO: 2), recombinant, His-tagged (protein, listed as Fusarium fujikuroi)
chain: MSAPEEHHGLKSKWPQAFDLAGSNSPCRIEGEIGDLVVLGEIPPAIDGTFYRVMCDPFVPPHPDNVPLDGDGHVSAFRIYNGRVDMKIKYVETERYKLERKAGKALFGLYRNPFTHHPCVRAAVDSTANTNMVYWADRLLALKESALPYEMHPDTLETLCYDPFGGQVKAKAFTAHPKIDPFSDELVVYGYEAKGLATRDIVIYSLDKNGIKHDEQWIESPWCAPIHDCVITPNFIVLILWPFEASVERMKAGKQHWAWDYSLPATFIVVPRRKTSKIPASWKQGEHRVYHWKNCMNIHAGSAWEEDNGKLYLETSRVHDNAFPFFPPVDGRMPAPDAKADFVRWEIDLNAPSGTQMADPEVILDVPSEFPRIDERFMTKRNEYLFLNVFIPETSQGGTNIFHGLNGLAMHNHSTGETKWFFAGKDSLVQEPIFIPRTADAPEGDGWVIAMLERRVANRSELVVLDTREFEKPVAFIQLPMHLKAQVHGNWIDSRTRASTEAIVRQIGEVKVSARGALEPLA
modifications: His tag
activity toward 4,4′-dihydroxy-3,3′-dimethoxystilbene [1]: did not show activity | isoeugenol added to the reaction mixture converted to vanillin ([2]; pH 7.0, 30° C., HPLC (FIG. 6)): Almost all | activity toward isoeugenol ([2]; potassium phosphate pH 7.0, 30° C.): high activity
